{
  "source": "patent US20260248932A1",
  "about": "“CATIONIC AMPHIPHILIC POLYPEPTIDE FOR DELIVERING RNA AND METHOD FOR PREPARING THE SAME” (INHA UNIVERSITY RESEARCH AND BUSINESS FOUNDATION, priority 2023, published 2026)",
  "assay": "Critical association concentration (CAC) by static light scattering",
  "assay_type": "physicochemical",
  "conditions": "10 mM HEPES buffer (pH 7.3), 0.001~4 mg/ml",
  "description": "For the light scattered intensity of the polypeptide, the static light scattering was measured at 25° C. and a detection angle of 173° using Zetasizer Pro (Malvern Panalytical, Worcestershire, UK) equipped with a He—Ne laser (2=633 nm). Samples in 10 mM HEPES buffer (pH 7.3) were analyzed using a low-volume quartz cuvette (ZEN2112, Malvern Panalytic).\nThe critical association concentration (hereinafter referred to as CAC) of peptides measured by static light scattering was analyzed. […] Homopolypeptide (DDDDDDDD) used as the control group was well dissolved in buffer (pH 7.3), but no CAC appeared up to treatment concentration of 4 mg/mL.",
  "data": [
    {"sequence": "DDDDDDDD [octameric homopolypeptide of L-Asp(DET) units used as the control group]", "values": [
      {"measurement": "critical association concentration (CAC)", "result": "> 4", "unit": "mg/mL"}
    ]}
  ]
}
